Experimental data: paper PMC7156724, “Potent BRD4 inhibitor suppresses cancer cell-macrophage interaction” (Nature Communications, 2020)
Values joined by “and” are separate entries in the source; they are usually repeats but may differ in a detail not shown here. Identical values can stand only once.

Assays:
in vitro [1] = conditions: human
Method: (§1) The concentration was calculated using the peak area ratio of analyte and internal […]
(§2) The results were calculated by the following equations:
(§3) % Unbound = 100 *FC / TC, % Bound = 100 * (1-FC / TC)
(§4) % Recovery = 100 * (FC + TC) / T0
(§5) TC = Total compound concentration as determined by the calculated concentration on the retentate side of the membrane
(§6) FC = Free compound concentration as determined by the calculated concentration on the dialysate side of the membrane […]
(§7) Equation of first order kinetics: […]
(§8) 8. Equilibrium dialysis assay. Binding with plasma protein and recovery rate of NHWD-870 were performed with human, CD-1 mouse and SD rat plasma as […]
(§9) described 2. […] The concentration was […]
(§10) calculated using the peak area ratio of analyte and internal standard. The results were calculated by the following equations: % Unbound = 100 *FC / TC, % Bound = 100 * (1-FC / TC); % Recovery = 100 * (FC + TC) / T0; TC = Total compound concentration as determined by the calculated concentration on the retentate side of the membrane; FC = Free compound concentration as determined by the (1 picture or pasted object on this page, not shown here) […]
(§11) calculated concentration on the dialysate side of the membrane; T0 = To t a l compound concentration as determined before dialysis. […]
(§12) 10. hERG channel assay. […]
(§13) HEK293 cell line stably

in vitro [2] = conditions: CD-1, mouse
Method: as §1, §2, §3, §4, §5, §6, §7, §8, §9, §10, §11, §12, §13

in vitro [3] = conditions: SD, rat
Method: as §1, §2, §3, §4, §5, §6, §7, §8, §9, §10, §11, §12, §13

TAMs [4] = assay: Number of TAMs after treatment with CSF1; assay type: cell-based, mouse
Method: Fig. 6 CSF1/CSF1R signaling is critical for the tumor inhibitory effects of NHWD-870 and CSF1 induced ovarian cancer growth depends on macrophages. a Number of TAMs after treatment with the indicated concentration of CSF1 for 48 h. Data are presented as mean ± SEM from three independent experiments. b–d Schematics of the experiments (b). A2780 cells (pre-treated with DMSO or 100 nM NHWD-870 for 48 h) were seeded into the top chamber (transwell size: 0.4 μm), and TAMs (Mac, 40,000 cells per 24-well) in medium with PBS or 10 ng/ml CSF1 (c), or 50 ng/ml IgG or anti-CSF1R antibodies (d), were seeded into the bottom chamber. Shown are quantification of TAMs (c, d). Data are presented as mean ± SEM from three independent experiments. e Representative western blot analysis of A2780 cells stably transfected with CSF1 or empty vector (EV). Selected from three independent experiments. f Schematics of the animal experiments using an orthotopic mouse OC model, established by intraperitoneally injecting 1 × 10^6 (g–j) or 2 × 10^6 (k–m) human A2780 cells overexpressing CSF1 or control into female recipient nude mice. Mice were then treated with/without liposomal clodronate (LC) for 45 days (g–j) or treated with/without NHWD-870 (PO, QD, 3 mg/kg) for 37 days (k–m). g Increased mouse body weight was measured at the indicated time points (day 0-45 after LC treatment). h–j Net tumor weight (h), ascitic fluid volumes (i) tumor implantations in peritoneum, omentum and pevic cavity (j) were measured at day 45 from LC treatment. k–m Net tumor weight (k), ascitic fluid volumes (l) tumor implantations in peritoneum, omentum and pevic cavity (m) were measured at day 37 after NHWD-870 treatment. For g–m, data are presented as mean ± SEM from five different mice. p values were calculated using two-tailed, unpaired t tests in this figure. n.s, not significant; *p < 0.05; **p < 0.01; and ***p < 0.001. Source data are provided as a Source Data file. […]

TAMs [5] = assay: Transwell co-culture of pretreated A2780 cells and TAMs with CSF1 or anti-CSF1R antibodies; assay type: cell-based, mouse; conditions: 10 ng/ml CSF1
Method: Fig. 6 CSF1/CSF1R signaling is critical for the tumor inhibitory effects of NHWD-870 and CSF1 induced ovarian cancer growth depends on macrophages. a Number of TAMs after treatment with the indicated concentration of CSF1 for 48 h. Data are presented as mean ± SEM from three independent experiments. b–d Schematics of the experiments (b). A2780 cells (pre-treated with DMSO or 100 nM NHWD-870 for 48 h) were seeded into the top chamber (transwell size: 0.4 μm), and TAMs (Mac, 40,000 cells per 24-well) in medium with PBS or 10 ng/ml CSF1 (c), or 50 ng/ml IgG or anti-CSF1R antibodies (d), were seeded into the bottom chamber. Shown are quantification of TAMs (c, d). Data are presented as mean ± SEM from three independent experiments. e Representative western blot analysis of A2780 cells stably transfected with CSF1 or empty vector (EV). Selected from three independent experiments. f Schematics of the animal experiments using an orthotopic mouse OC model, established by intraperitoneally injecting 1 × 10^6 (g–j) or 2 × 10^6 (k–m) human A2780 cells overexpressing CSF1 or control into female recipient nude mice. Mice were then treated with/without liposomal clodronate (LC) for 45 days (g–j) or treated with/without NHWD-870 (PO, QD, 3 mg/kg) for 37 days (k–m). g Increased mouse body weight was measured at the indicated time points (day 0-45 after LC treatment). h–j Net tumor weight (h), ascitic fluid volumes (i) tumor implantations in peritoneum, omentum and pevic cavity (j) were measured at day 45 from LC treatment. k–m Net tumor weight (k), ascitic fluid volumes (l) tumor implantations in peritoneum, omentum and pevic cavity (m) were measured at day 37 after NHWD-870 treatment. For g–m, data are presented as mean ± SEM from five different mice. p values were calculated using two-tailed, unpaired t tests in this figure. n.s, not significant; *p < 0.05; **p < 0.01; and ***p < 0.001. Source data are provided as a Source Data file.
CD45^+CD11b^+F4/80^+ TAMs were isolated from peritoneal metastasis of A2780 tumor-bearing mice and cultured in RPMI-1640 supplemented with 10% FBS, 1% penicillin/streptomycin, and 0–50 ng/ml CSF1 (R&D Systems) as indicated according to standard protocols. In the cancer cell-macrophage co-culture experiments, CSF1 was not added. In the transwell (Corning, pore size, 0.4 μm) co-culture experiments, tumor cells were placed into the upper chamber, and TAMs were seeded into the lower chamber.

[6] = tested on: PI3K/AKT1 and ERK phosphorylation; assay: Western blot of p-PI3K, p-AKT1 and p-ERK in TAMs; assay type: cell-based, mouse
Method: Supplementary Figure 13. NHWD-870 inhibited CSF1/CSF1R signaling pathw ay to reduce TAM […]
TA M s ( 2 ×10^5 cells) (treated with or without 10 ng/ml CSF1 and 100 nM NHWD-870 for 48 h) were seeded into the 6-well bottom chamber, in the presence or absence of A2780 cells (pre-treated with or without 100 nM NHWD-870 for 48 h) seeded into the top chamber (transwell size: 0.4μm). Shown are schematics of the experiment and representative western blot analysis of the indicated proteins (a), and quantification of the relative levels of p-PI3K, p-AKT1 and p-ERK over their respective total protein (b). Data are presented as mean ± SEM from 3 independent experiments. p values were calculated using two-tailed, unpaired t tests. n.s, no significant; **, p<0.01; ***, p<0.001. Source data are provided as a Source Data file. […]
4. Protein extraction and w estern blot anal ysis. Freshly dissected unfixed tissue was homogenized in lysis buffer. The lysates were centrifuged at 13,000g for 10 minutes at 4°C. Supernatants were collected and determined with a Bradford Protein Assay kit (Bio-Rad, Hercules, CA). The cell lysates were subjected to SDS-PAGE followed by immunoblotting (Immobilon P; Millipore, Milford, MA) with specific antibodies followed by detection using an enhanced chemilumine scence kit (Amersham Life Science, Arlington Heights, IL). […]

TAMs [7] = assay: Ki67 FACS of TAMs induced by CSF1; assay type: cell-based, mouse; conditions: CSF1 treatment
Method: Flow cytometry analyses were performed using antibodies listed in Supplementary Table 8. For cell surface markers, mouse TAM suspensions were stained with mouse APC-CD45, FITC-CD11b, PE-F4/80 or APC-F4/80, CD68, and PE-CD206 antibodies for 15 min on ice. For Ki67 staining, cells were fixed in 4% paraformaldehyde and stained with FITC-Ki67. Isotype matching antibody served as the negative control. Flow cytometry was performed on a FACSCalibur (BD Biosciences). Data were analyzed with BD CellQuest Pro software version 5.1.
Supplementary Figure 14. NHWD-870 and BRD4 deletion partially inhibite d prolifera tion of TAMs […]
(a) CD45+CD11b+F4/80 + TAMs in the orthotopic B16 melanoma model were harvested from tumors. Shown are representative FACS plots of TAMs. (b,c) Representative FACS plots (b) and quantification (c) of Ki67+ macrophages treated with 50 ng/ml CSF1, and DMSO or 25 or 50 nM NHWD-870. […]
TAMs induced by CSF1. (a-c) CD11b+F4/80+ macrophages in the orthotopic B16F10 melanoma model were harvested from tumor tissues. Shown are representative CD45+, CD11b+, F4/80+ FACS plots (a) and quantification of the percentage of Ki67+ cells after treatment with DMSO or NHWD-870 dependent on CSF1 stimulation (b,c). (d-g) FACS plots and quantification of the percentage of Ki67+ cells after CRISPR/Cas9-mediated BRD4 knockout (d,e) and c-MYC knockout (f,g) in CD11b+F4/80+ macrophages. CSF1 is added at the indicated concentration.
Please also see response to comment # 4 about our 2D assays, in which we used colony number to quantify the number of TAMs.
NHWD-870 treatment and the main differences are colony size.
6. For comparison purposes, it would be a good idea to compare the direct effect of NHWD-870 on in […]
marrow derived macrophage proliferation and gene expression in vitro). […]

[8] = CSF1 treatment, individual replicates, Ctrl about 1

`CC(=O)CC(c1ccccc1)c1c(O)c2ccccc2oc1=O` (stereo not drawn) [Warfarin, reference compound] gave a recovery (in vitro [1]) of 90.2%, a recovery (in vitro [2]) of 99.2% and a recovery (in vitro [3]) of 86.8%.

B1: CSF1: macrophage colony-stimulating factor, purchased from R&D Systems (protein, UniProt P09603 33-554, looked up)
Macrophage colony-stimulating …: EEVSEYCSHMIGSGHLQSLQRLIDSQMETSCQITFEFVDQEQLKDPVCYLKKAFLLVQDIMEDTMRFRDNTPNAIAIVQLQELSLRLKSCFTKDYEEHDKACVRTFYETPLQLLEKVKNVFNETKNLLDKDWNIFSKNCNNSFAECSSQDVVTKPDCNCLYPKAIPSSDPASVSPHQPLAPSMAPVAGLTWEDSEGTEGSSLLPGEQPLHTVDPGSAKQRPPRSTCQSFEPPETPVVKDSTIGGSPQPRPSVGAFNPGMEDILDSAMGTNWVPEEASGEASEIPVPQGTELSPSRPGGGSMQTEPARPSNFLSASSPLPASAKGQQPADVTGTALPRVGPVRPTGQDWNHTPQKTDHPSALLRDPPEPGSPRISSLRPQGLSNPSTLSAQPQLSRSHSSGSVLPLGELEGRRSTRDRRSPAEPEGGPASEGAARPLPRFNSVPLTDTGHERQSEGSFSPQLQESVFHLLVPSVILVLLAVGGLLFYRWRRRSHQEPQRADSPLEQPEGSPLTQDDRQVELPV
In the case of B1, the “proliferation of TAMs” value (TAMs [4]; 48 h) is reported as “increased proliferation of TAMs in a dose-dependent manner”, the “Number of TAMs (Fig.6a)” value (TAMs [4]; CSF1 10) is reported as 15.5 and 19.7 and 20.1 and the “Number of TAMs (Fig.6a)” value (TAMs [4]; CSF1 50) is reported as 45.6 and 59.6 and 67.2. The “rescue of TAM proliferation in co-culture with NHWD-870 pretreated A2780 cells” value (TAMs [5]) was “partially rescue the inhibitory effects of NHWD-870”, the “PI3K/AKT1 and ERK phosphorylation in TAMs” value ([6]; 10 ng/ml CSF1) was “induced PI3K/AKT1 and ERK phosphorylation” and the “p-AKT1 (Sup Fig.13b quantification)” value [6, 8] was 7.5 and 6.3 and 5.51. For the same molecule, the “p-ERK (Sup Fig.13b quantification)” value [6, 8] was 3.68 and 4.51 and 5.3, the “p-PI3K (Sup Fig.13b quantification)” value [6, 8] was 3.62 and 4.72 and 3.2 and the “fold induction of TAM proliferation” value (TAMs [7]) was greater than 10 fold.
